Experimental data taken from patent publication US20220227866A1 (VELOSBIO, published 2022).
Several values for one entry are separate records, joined by “and”; a condition that tells them apart may be missing. Equal entries are not always repeated. Each block holds one binder with its values, some of them ahead of it.

Key:
[1] = molecular target: T1, recombinant human ROR1 extracellular domain (human, UniProt Q01973 30-406); assay: ELISA, Fab titrated on immobilized human ROR1
T1 construct: Bought (Acro Biosystems cat. R01-H522Y); whole entry named; also called ROR1-ECD; immobilized ROR1

[2] = molecular target: T1, recombinant human ROR1 extracellular …; assay: ELISA, immobilised ROR1 ECD, construct titrated
Method: A 96-well Costar-3366 plate was coated with 50 μL/well of 2 μg/mL […] (Acro Biosystems cat. #R01-H522Y) in PBS overnight at 4° C. The plate was rinsed once with PBS containing 0.05% Tween 20 (PBS-T) and blocked with 100 μL/well of 5% non-fat milk in PBS (5% M-P) for 1 h at 25° C. Antibody samples were serially diluted 2-fold using 5% M-P and were incubated for 1 h at 25° C. (50 μL/well). The plate was washed three times with PBS-T and 50 μL/well anti-human kappa, HRP conjugate (Southern Biotech cat. #2060-05) diluted 10,000-fold in 5% M-P was added for 1 h at 25° C. The plate was washed three times with PBS-T, developed with 50 μL/well 1-Step Ultra TMB-ELISA (Thermo Scientific cat. #34028). The reaction was terminated by the addition of 2 N H₂SO₄ and the A450 was determined using a Spectramax plate reader.
Next, the binding of bispecific binding molecules to ROR was characterized by ELISA using recombinantly-expressed extracellular domain of RORL. ROR was immobilized on a microtiter plate, the bispecific binding molecules were titrated, and binding was quantitated with an anti-human kappa-HRP reagent. Consistent with the cell binding data, all constructs bound ROR1 in a concentration-dependent manner (FIG. 6). Moreover, monovalent ROR1 constructs 13-15 bound less tightly than all but two of the bivalent constructs.

[3] = molecular target: T2, human CD3 on Jurkat cells (human, UniProt P09693 23-182; P04234 22-171; P07766 23-207); assay: flow cytometry on Jurkat cells
T2 construct: GenBank NP_000064.1, NP_000723.1, NP_000724.1
Method: (§1) To quantitate CD3 binding, 2.5E5 Jurkat cells were used for each condition. A 2× stock of the cells was made by resuspending the cells to 5E6/mL by placing in 50 μL of PBS with 2% FBS. Next, the cells were diluted with an equal volume of 2× stock of the test bispecific binding molecule. The cells and antibody were co-incubated on ice for 20 min. The cells were then washed 3 times with 300 μL of FACS buffer and were resuspended in 100 μL of goat anti-human Fc-PE conjugate antibody (Invitrogen cat. #12499882) at 1:500 dilution and incubated on ice with reduced light for 20 min. The cells were then washed 3 times with 300 μL of FACS buffer and fixed with 2% paraformaldehyde for 10 min at 25° C. The cells were washed 2 times with 300 μL of FACS buffer and analyzed on a Miltenyi MACSQuant Analyzer.

[4] = molecular target: T3, human ROR1 on cells (human, UniProt Q01973 30-937); assay: flow cytometry on ROR1-transfected MEC cells after 24 h incubation with the construct
T3 construct: Cell-surface ROR1; also called ROR1-transfected MEC cells; JeKo-1 cells

[5] = molecular target: T4, soluble biotinylated human ROR1 extracellular domain (human, UniProt Q01973 30-406, biotinylated with EZ-Link Sulfo-NHS-LC-Biotin at a 1:5 molar ratio); assay: ELISA, captured construct, biotinylated ROR1 titrated
T4 construct: Acro Biosystems cat; whole entry named; also called b-ROR1; soluble b-ROR1
Method: To measure the binding of bispecific constructs to soluble ROR1, a 96-well Costar-3366 plate was coated with 50 μL/well of 2 μg/mL goat anti-human kappa (Southern Biotech cat. #2060-01) in PBS overnight at 4° C. The plate was rinsed once with PBS-T, blocked with 100 μL/well 5% M-P for 1 h at 25° C., rinsed once with PBS-T, and 2 μg/mL of the bispecific binding molecule was added and incubated for 1 h at 25° C. The plate was washed three times with PBS-T. Biotinylated ROR1 was diluted serially, 3-fold in 5% M-P and was incubated for 1 h at 25° C. (50 μL/well). The plate was washed three times with PBS-T. To detect the binding of b-ROR1, 50 μL/well Neutravidin-HRP (Pierce cat. #31030) diluted 1:5000 in 1% BSA-PBS was added for 1 h at 25° C. The plate was washed three times with PBS-T, then developed with 50 μL/well 1-Step Ultra TMB-ELISA (Thermo Scientific cat. #34028). The reaction was terminated by the addition of 2 N H₂SO₄ and the A450 was determined using a Spectramax plate reader.
The stronger binding observed with bivalent constructs versus monovalent constructs in cell assays and ELISAs in which the antigen is immobilized is consistent with an avidity effect. To determine if this was the case, binding to soluble monomeric ROR1 was assessed by immobilizing the bispecific binding molecules on a microtiter plate coated with goat anti-human kappa antibody and titrating biotinylated RORL. All bispecific binding molecules were active in this format (FIG. 7), and in most cases, there were no notable differences between monovalent and bivalent constructs.

[6] = molecular target: T3, human ROR1 on cells; assay: cell-based or functional assay
[7] = molecular target: T3, human ROR1 on cells; assay: flow cytometry on JeKo-1 cells
Method: ROR1 binding was quantitated using both ROR1-transfected MEC cells and JeKo-1 cells. For each condition, 2.5E5 cells were used. The cells were placed in 50 μL of PBS with 2% FBS. Next, the cells were diluted with an equal volume of 2× stock of the test bispecific binding molecule. The cells and antibody were co-incubated on ice for 20 min. The cells were then washed 3 times with 300 μL of FACS buffer and were resuspended in 100 μL of anti-human Fc-PE conjugate antibody (Invitrogen cat. #12499882) and incubated on ice with reduced light for 20 min. Subsequently, the cells were washed 3 times with 300 μL of FACS buffer and fixed with 2% paraformaldehyde for 10 min at 25° C. The cells then were washed 2 times with 300 μL of FACS buffer and analyzed on a Miltenyi MACSQuant Analyzer.
The influence of ROR expression levels on binding of the bispecific constructs was assessed by flow cytometry using JeKo-1 cells. JeKo-1 cells express lower levels of ROR (˜13,000 copies/cell) than the ROR1-transfected MEC cells (˜56,000 copies/cell). All constructs bound JeKo-1 cells (FIG. 5). […] Specifically, monovalent ROR1 constructs generally bound more weakly than the bivalent constructs (FIG. 5, Panel A, compare constructs 14 and 15 with other constructs; FIG. 5, Panel C, compare constructs 15-17 with other constructs).

[8] = molecular target: T2, human CD3 on Jurkat cells; assay: flow cytometry on Jurkat cells (1 ug/mL construct on ice, washed, then 37 C)
Method: as §1
To quantitate internalization of the bispecific binding molecules, 2.5E5 Jurkat cells were co-incubated with 1 μg/mL of the bispecific binding molecule on ice for 20 min. The cells were then washed 3 times 300 μL with ice-cold FACS buffer and were resuspended in culture media and incubated at 37° C. At various times, cells were removed, washed with 300 μL ice-cold FACS buffer and processed as described above.

T2 sequence (P09693 23-182 limits assumed, chain 1 of 3): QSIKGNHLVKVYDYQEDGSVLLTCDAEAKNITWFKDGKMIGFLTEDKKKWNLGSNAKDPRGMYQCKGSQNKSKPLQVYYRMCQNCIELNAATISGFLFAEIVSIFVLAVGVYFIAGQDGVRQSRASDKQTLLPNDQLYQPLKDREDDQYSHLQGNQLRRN
T2 sequence (P04234 22-171 limits assumed, chain 2 of 3): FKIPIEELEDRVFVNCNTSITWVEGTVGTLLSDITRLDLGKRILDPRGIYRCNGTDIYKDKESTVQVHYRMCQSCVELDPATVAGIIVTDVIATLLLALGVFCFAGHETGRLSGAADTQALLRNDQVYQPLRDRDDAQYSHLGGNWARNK
T2 sequence (P07766 23-207 limits assumed, chain 3 of 3): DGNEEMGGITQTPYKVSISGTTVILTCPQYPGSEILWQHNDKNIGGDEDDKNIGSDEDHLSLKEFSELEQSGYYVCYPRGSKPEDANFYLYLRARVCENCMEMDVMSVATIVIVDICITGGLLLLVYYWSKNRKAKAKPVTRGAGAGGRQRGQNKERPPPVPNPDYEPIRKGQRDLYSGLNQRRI
T3 sequence (Q01973 30-937 limits assumed): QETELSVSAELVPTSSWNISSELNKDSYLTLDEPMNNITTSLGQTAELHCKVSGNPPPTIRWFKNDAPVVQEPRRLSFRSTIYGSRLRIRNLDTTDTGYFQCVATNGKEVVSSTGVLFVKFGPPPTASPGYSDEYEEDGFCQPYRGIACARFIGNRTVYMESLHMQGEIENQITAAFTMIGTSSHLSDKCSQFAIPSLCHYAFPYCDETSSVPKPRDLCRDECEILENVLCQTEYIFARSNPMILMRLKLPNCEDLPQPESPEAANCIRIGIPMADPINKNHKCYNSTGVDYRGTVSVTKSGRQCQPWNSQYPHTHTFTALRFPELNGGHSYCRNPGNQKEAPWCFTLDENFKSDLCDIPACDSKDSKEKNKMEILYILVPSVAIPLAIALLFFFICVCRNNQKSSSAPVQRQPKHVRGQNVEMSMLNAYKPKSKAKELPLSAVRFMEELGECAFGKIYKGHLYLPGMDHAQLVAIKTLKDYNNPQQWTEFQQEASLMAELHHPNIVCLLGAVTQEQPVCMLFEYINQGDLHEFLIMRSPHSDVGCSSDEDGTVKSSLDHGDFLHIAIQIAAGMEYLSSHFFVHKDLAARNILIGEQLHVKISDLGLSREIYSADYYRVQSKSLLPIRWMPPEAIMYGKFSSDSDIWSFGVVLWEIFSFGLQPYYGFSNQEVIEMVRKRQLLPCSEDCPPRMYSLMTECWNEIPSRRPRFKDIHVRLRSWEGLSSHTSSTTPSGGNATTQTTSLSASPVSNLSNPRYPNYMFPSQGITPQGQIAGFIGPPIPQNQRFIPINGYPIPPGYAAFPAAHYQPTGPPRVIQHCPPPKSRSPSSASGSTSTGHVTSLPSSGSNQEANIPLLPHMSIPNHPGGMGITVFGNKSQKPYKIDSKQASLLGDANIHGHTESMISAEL
T1 sequence (Q01973 30-406 limits assumed): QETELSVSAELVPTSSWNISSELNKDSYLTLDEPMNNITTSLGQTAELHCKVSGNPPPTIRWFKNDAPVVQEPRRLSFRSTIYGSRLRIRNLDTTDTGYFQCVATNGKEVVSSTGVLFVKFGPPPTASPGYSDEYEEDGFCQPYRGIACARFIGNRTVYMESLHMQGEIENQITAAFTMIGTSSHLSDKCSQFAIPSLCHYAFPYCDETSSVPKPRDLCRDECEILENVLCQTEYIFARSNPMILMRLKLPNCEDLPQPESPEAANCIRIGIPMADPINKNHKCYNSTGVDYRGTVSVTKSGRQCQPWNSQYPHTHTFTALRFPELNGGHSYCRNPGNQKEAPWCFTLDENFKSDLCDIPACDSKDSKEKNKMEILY
T4 sequence (Q01973 30-406 limits assumed): as above

- EC50 (read off the curve) [1]: ~6 nM
B1: parental Ab1 Fab (WT) (Fab, V domains shown)
VH: QVQLQESGPGLVKPSQTLSLTCTVSGYAFTAYNIHWVRQAPGQGLEWMGSFDPYDGGSSYNQKFKDRLTISKDTSKNQVVLTMTNMDPVDTATYYCARGWYYFDYWGHGTLVTVSS
VL: DIVMTQTPLSLPVTPGEPASISCRASKSISKYLAWYQQKPGQAPRLLIYSGSTLQSGIPPRFSGSGYGTDFTLTINNIESEDAAYYFCQQHDESPYTFGEGTKVEIKR
notes: Tested as Fab; also called parental Fab; parental antibody

- Kd [2]: 0.2 nM
- binding result [3]: binds
- EC50 (read off the curve) [4]: ~0.003 µg/mL
- Kd [5]: 0.193 nM
- EC50, LDH release, ROR1-transfected MEC [6]: 11 ng/mL and 55 pM
- Max. LDH Release, ROR1-transfected MEC [6]: 42%
B2: Bispecific construct 1 (bispecific antibody, human IgG1, kappa)
heavy: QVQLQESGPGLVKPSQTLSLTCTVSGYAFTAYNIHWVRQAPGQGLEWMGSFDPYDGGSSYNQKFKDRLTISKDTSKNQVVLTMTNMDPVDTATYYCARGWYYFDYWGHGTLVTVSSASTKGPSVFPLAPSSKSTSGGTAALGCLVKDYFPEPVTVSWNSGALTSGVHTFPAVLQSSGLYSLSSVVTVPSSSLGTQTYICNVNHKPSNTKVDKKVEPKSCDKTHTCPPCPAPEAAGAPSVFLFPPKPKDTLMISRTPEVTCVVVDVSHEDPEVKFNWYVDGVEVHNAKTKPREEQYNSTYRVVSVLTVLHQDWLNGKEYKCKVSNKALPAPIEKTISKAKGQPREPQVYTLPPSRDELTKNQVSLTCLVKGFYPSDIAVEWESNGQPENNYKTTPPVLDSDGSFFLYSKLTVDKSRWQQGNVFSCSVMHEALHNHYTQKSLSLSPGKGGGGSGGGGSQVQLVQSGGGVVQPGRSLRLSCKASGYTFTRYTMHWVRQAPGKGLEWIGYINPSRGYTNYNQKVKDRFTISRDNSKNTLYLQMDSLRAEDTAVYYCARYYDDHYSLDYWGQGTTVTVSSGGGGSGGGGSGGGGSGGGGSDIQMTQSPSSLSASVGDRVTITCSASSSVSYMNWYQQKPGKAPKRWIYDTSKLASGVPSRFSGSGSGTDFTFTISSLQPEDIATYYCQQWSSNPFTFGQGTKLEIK
light: DIVMTQTPLSLPVTPGEPASISCRASKSISKYLAWYQQKPGQAPRLLIYSGSTLQSGIPPRFSGSGYGTDFTLTINNIESEDAAYYFCQQHDESPYTFGEGTKVEIKRTVAAPSVFIFPPSDEQLKSGTASVVCLLNNFYPREAKVQWKVDNALQSGNSQESVTEQDSKDSTYSLSSTLTLSKADYEKHKVYACEVTHQGLSSPVTKSFNRGEC
notes: ROR1 arm Ab1; CD3 valency 2, ROR1 valency 2

- Kd [2]: 0.041 nM
- EC50 (read off the curve) [7]: ~0.02 µg/mL
- binding result [8]: binds
- Kd [5]: 0.129 nM
- EC50, LDH release, ROR1-transfected MEC [6]: 5 ng/mL and 25 pM
- Max. LDH Release, ROR1-transfected MEC [6]: 50%
B3: Bispecific construct 2 (bispecific antibody, human IgG1, kappa)
heavy: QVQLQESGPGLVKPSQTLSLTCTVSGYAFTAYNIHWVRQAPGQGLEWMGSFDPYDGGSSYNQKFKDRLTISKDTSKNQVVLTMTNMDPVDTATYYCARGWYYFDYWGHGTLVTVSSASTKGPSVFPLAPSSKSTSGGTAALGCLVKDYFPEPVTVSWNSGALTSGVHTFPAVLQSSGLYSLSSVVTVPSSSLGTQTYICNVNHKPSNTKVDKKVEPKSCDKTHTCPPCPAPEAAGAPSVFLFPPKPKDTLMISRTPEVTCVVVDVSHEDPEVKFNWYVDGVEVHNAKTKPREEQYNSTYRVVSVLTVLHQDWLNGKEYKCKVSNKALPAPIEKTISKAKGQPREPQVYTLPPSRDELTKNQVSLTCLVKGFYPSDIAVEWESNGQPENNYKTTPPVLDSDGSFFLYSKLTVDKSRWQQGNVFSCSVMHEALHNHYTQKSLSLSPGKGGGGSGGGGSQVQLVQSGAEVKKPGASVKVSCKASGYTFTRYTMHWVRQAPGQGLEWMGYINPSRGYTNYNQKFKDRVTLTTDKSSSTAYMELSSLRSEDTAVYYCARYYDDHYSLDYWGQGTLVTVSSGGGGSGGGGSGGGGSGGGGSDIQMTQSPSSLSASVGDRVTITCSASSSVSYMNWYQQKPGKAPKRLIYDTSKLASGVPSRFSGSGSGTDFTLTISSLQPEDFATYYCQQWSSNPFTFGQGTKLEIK
light: B2 light
notes: anti-CD3 scFv Ab9 (OKT3-based); ROR1 arm Ab1; valency 2/2

- Kd [2]: 0.085 nM
- EC50 (read off the curve) [7]: ~0.02 µg/mL
- binding result [3]: binds
- Kd [5]: 0.105 nM
B4: Bispecific construct 4 (bispecific antibody, human IgG1, kappa)
heavy: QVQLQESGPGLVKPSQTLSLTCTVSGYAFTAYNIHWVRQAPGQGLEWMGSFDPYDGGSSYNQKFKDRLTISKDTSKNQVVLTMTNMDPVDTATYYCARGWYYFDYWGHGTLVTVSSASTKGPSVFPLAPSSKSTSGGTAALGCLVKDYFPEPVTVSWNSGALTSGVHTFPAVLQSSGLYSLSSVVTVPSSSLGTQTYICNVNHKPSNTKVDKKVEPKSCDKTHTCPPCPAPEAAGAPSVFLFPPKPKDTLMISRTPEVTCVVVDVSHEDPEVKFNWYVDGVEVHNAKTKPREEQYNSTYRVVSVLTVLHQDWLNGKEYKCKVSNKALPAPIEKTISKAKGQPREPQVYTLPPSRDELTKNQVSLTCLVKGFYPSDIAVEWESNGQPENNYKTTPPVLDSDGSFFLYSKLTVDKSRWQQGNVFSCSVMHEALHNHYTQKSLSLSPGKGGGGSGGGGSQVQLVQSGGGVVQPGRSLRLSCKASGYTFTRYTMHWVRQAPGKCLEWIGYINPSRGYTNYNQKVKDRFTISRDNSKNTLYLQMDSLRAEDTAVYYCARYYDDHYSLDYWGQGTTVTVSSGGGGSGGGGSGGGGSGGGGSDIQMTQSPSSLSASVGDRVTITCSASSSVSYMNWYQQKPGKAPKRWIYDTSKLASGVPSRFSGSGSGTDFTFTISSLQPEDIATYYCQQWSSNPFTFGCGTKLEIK
light: B2 light
notes: disulfide-stabilized anti-CD3 scFv Ab8; ROR1 arm Ab1; valency 2/2

- Kd [2]: 0.055 nM
- EC50 (read off the curve) [7]: ~0.02 µg/mL
- binding result [3]: binds
- Kd [5]: 0.07 nM
B5: Bispecific construct 5 (bispecific antibody, human IgG1, kappa)
heavy: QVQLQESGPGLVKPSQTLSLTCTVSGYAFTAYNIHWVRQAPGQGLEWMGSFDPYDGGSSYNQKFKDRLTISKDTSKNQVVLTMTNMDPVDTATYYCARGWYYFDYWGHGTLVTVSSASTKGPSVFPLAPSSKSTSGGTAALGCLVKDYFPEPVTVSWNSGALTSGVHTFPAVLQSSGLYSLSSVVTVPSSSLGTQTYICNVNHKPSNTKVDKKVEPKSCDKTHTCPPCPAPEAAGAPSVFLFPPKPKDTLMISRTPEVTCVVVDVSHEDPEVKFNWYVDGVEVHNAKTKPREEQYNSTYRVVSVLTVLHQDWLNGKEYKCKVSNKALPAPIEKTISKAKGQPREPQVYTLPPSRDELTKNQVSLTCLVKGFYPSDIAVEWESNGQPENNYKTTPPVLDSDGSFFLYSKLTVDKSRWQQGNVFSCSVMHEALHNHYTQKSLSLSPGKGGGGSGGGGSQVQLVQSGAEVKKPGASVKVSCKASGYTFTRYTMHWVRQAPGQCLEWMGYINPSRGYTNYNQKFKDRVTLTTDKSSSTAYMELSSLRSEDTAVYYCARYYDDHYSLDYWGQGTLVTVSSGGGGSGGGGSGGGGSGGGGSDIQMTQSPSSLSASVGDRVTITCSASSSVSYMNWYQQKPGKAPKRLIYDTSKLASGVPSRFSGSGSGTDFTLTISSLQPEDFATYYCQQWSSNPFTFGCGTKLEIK
light: B2 light
notes: disulfide-stabilized anti-CD3 scFv Ab9; ROR1 arm Ab1; valency 2/2

- Kd [2]: 0.05 nM
- binding result [3]: binds
- EC50 (read off the curve) [4]: ~0.005 µg/mL
- Kd [5]: 0.118 nM
- EC50, LDH release, Mino [6]: 0.97 ng/mL and 4.9 pM
- EC50, LDH release, ROR1-transfected MEC [6]: 1.3 ng/mL and 6.5 pM
- Max. LDH Release, Mino [6]: 50%
- Max. LDH Release, ROR1-transfected MEC [6]: 55%
B6: Bispecific construct 7 (bispecific antibody, human IgG1, kappa)
heavy: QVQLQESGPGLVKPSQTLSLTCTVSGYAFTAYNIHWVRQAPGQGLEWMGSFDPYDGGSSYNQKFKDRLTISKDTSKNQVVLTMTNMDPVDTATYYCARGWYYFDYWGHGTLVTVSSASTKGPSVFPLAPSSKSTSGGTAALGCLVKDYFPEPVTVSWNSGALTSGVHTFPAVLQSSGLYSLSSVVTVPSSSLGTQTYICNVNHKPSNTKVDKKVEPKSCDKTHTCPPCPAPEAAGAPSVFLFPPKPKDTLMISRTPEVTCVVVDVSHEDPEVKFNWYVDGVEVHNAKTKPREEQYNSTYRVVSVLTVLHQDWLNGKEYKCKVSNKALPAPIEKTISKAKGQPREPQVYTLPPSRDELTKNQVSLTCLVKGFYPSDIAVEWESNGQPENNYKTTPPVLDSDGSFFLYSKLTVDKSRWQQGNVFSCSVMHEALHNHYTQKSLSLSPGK
light: DIVMTQTPLSLPVTPGEPASISCRASKSISKYLAWYQQKPGQAPRLLIYSGSTLQSGIPPRFSGSGYGTDFTLTINNIESEDAAYYFCQQHDESPYTFGEGTKVEIKRTVAAPSVFIFPPSDEQLKSGTASVVCLLNNFYPREAKVQWKVDNALQSGNSQESVTEQDSKDSTYSLSSTLTLSKADYEKHKVYACEVTHQGLSSPVTKSFNRGECGGGGSGGGGSQVQLVQSGGGVVQPGRSLRLSCKASGYTFTRYTMHWVRQAPGKGLEWIGYINPSRGYTNYNQKVKDRFTISRDNSKNTLYLQMDSLRAEDTAVYYCARYYDDHYSLDYWGQGTTVTVSSGGGGSGGGGSGGGGSGGGGSDIQMTQSPSSLSASVGDRVTITCSASSSVSYMNWYQQKPGKAPKRWIYDTSKLASGVPSRFSGSGSGTDFTFTISSLQPEDIATYYCQQWSSNPFTFGQGTKLEIK
notes: ROR1 arm Ab1; valency 2/2

- Kd [2]: 0.098 nM
- binding result [8]: binds
- Kd [5]: 0.151 nM
- EC50, LDH release, A549 [6]: 3.39 ng/mL and 17.1 pM
- EC50, LDH release, A4573 [6]: 1.2 ng/mL and 6.1 pM
- EC50, LDH release, JeKo-1 [6]: 1.62 ng/mL and 8.1 pM
- EC50, LDH release, Mino [6]: 0.95 ng/mL and 4.8 pM
- EC50, LDH release, Saos-2 [6]: 2.92 ng/mL and 14.7 pM
- Max. LDH Release, Mino [6]: 53%
B7: Bispecific construct 8 (bispecific antibody, human IgG1, kappa)
heavy: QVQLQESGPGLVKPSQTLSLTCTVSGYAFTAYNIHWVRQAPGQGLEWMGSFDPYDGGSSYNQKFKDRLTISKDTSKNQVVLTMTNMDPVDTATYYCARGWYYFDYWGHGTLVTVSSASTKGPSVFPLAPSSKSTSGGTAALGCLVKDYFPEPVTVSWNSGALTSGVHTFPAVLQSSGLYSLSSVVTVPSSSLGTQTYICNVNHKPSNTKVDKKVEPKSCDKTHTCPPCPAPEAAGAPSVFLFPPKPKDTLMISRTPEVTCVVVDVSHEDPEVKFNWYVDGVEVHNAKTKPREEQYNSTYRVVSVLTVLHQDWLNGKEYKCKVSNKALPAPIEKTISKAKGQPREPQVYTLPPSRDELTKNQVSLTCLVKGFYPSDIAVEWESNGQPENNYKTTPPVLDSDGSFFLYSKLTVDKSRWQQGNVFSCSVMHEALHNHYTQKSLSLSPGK
light: DIVMTQTPLSLPVTPGEPASISCRASKSISKYLAWYQQKPGQAPRLLIYSGSTLQSGIPPRFSGSGYGTDFTLTINNIESEDAAYYFCQQHDESPYTFGEGTKVEIKRTVAAPSVFIFPPSDEQLKSGTASVVCLLNNFYPREAKVQWKVDNALQSGNSQESVTEQDSKDSTYSLSSTLTLSKADYEKHKVYACEVTHQGLSSPVTKSFNRGECGGGGSGGGGSQVQLVQSGAEVKKPGASVKVSCKASGYTFTRYTMHWVRQAPGQGLEWMGYINPSRGYTNYNQKFKDRVTLTTDKSSSTAYMELSSLRSEDTAVYYCARYYDDHYSLDYWGQGTLVTVSSGGGGSGGGGSGGGGSGGGGSDIQMTQSPSSLSASVGDRVTITCSASSSVSYMNWYQQKPGKAPKRLIYDTSKLASGVPSRFSGSGSGTDFTLTISSLQPEDFATYYCQQWSSNPFTFGQGTKLEIK
notes: as for B3
